Laboratory results reported in patent US8242078B2, “Therapeutics to inhibit MLL-menin interaction for treating leukemia” (The University of Chicago, priority 2006, dated 2012).
“Also recorded” adds a separate entry of the source.

How the values were obtained:
[1] = target: T1, interaction of transfected MLL with endogenous menin (Homo sapiens, UniProt O00255); assay: Disruption of binding of transfected FLAG-tagged MLL 1-330 to endogenous menin (anti-FLAG immunoprecipitation, anti-menin Western blot); conditions: each peptide tested at 10, 20, and 30 μM
T1 construct: endogenous in cells; host or cells: 293 cells (lysate; cells transfected with FLAG-MLL 1-330)
T1 sequence (O00255 1-610): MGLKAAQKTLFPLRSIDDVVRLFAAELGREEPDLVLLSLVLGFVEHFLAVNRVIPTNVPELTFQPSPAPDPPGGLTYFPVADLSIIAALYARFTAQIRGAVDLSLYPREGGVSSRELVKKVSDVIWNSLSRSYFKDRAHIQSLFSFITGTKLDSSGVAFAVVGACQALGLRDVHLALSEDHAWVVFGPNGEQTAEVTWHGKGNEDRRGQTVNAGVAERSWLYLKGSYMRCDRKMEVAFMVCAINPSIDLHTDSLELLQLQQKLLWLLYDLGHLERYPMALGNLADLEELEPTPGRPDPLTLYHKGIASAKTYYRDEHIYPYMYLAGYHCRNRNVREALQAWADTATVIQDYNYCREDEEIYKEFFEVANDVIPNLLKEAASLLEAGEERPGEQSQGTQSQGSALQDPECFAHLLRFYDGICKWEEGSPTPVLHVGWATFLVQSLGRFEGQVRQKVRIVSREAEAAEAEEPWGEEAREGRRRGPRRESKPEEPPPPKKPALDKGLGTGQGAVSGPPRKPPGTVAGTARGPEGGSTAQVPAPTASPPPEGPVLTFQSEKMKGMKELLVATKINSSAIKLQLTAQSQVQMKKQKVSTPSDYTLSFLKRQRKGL
Description: To determine the precise domain that mediates the binding of MLL to menin, a series of peptides from the N-terminus of MLL were synthesized. To assess disruption of binding of transfected MLL to endogenous menin, a FLAG-tagged MLL 1-330 construct was transfected into 293 cells and the cell lysates were incubated with a series of peptides listed below or with water as a control. Cell lysates were immunoprecipitated with anti-FLAG antibody (Sigma), separated by SDS-PAGE and blotted with an anti-menin antibody (Bethyl Laboratories Inc, or Santa-Cruz). The amino acid numbers from the N-terminus of MLL are indicated below (preceding the amino acid sequence) for the peptides analyzed for their ability to disrupt the interaction of MLL and menin.
Conditional inactivation of menin results in the reversal of the transforming properties of MLL fusion proteins. A high affinity menin binding domain has been localized to the N-terminal residues of MLL, and deletion of residues 6 through 10 of MLL prevents MLL-ELL from transforming hematopoietic progenitor cells. To target the MLL-menin interaction, a series of peptides were developed for the potential to block the interaction of menin with MLL. To establish the activity of these peptides, lysates of cells transfected with FLAG-tagged N-terminal MLL sequences were examined. The lysates were immunoprecipitated with a FLAG antibody, incubated with either an MLL peptide or a control scrambled peptide, and then blotted with an anti-menin antibody. […] To examine the activity of the TAT-MLL peptide, mouse and human leukemia cell lines were treated with the TAT-MLL peptide. […] (#TIB-202, American Type Culture Collection, Manassas, Va.).

[2] = tested on: Leukemia cell lines; assay: Relative growth inhibition of TAT-MLL vs TAT-MLL mutant (MTS cell proliferation assay); format: cell-based

“RKKRRQRRR-GG-CRWRFGARGG (SEQ ID NO: 16) (RKKRRQRRRGGCRWRFGARGG) [TAT-MLL-G 5-14, TAT-MLL 5-14 peptide with prolines replaced by glycines, used as a control, reference compound]” was tested, and the “inhibition of the binding of transfected MLL 1-330 to endogenous menin (Western blot, FIG. 2)” value [1] was “did not inhibit the binding of MLL1-330 with menin; also recorded: did not block the interaction of MLL with menin” and the “effect on proliferation, TAT-MLL vs TAT-MLL mutant (FIG. 6)” value [2] was “significantly decreases the effect of the peptide on proliferation”.
